Data: publication doi:10.1101/2022.06.02.494603 (bioRxiv, 2022)

Target: optineurin, C-terminal myc-FLAG-tagged (UniProt Q96CV9 1-577)
Assay: co-IP

Chain of optineurin, C-terminal myc-FLAG-tagged (Q96CV9 whole entry): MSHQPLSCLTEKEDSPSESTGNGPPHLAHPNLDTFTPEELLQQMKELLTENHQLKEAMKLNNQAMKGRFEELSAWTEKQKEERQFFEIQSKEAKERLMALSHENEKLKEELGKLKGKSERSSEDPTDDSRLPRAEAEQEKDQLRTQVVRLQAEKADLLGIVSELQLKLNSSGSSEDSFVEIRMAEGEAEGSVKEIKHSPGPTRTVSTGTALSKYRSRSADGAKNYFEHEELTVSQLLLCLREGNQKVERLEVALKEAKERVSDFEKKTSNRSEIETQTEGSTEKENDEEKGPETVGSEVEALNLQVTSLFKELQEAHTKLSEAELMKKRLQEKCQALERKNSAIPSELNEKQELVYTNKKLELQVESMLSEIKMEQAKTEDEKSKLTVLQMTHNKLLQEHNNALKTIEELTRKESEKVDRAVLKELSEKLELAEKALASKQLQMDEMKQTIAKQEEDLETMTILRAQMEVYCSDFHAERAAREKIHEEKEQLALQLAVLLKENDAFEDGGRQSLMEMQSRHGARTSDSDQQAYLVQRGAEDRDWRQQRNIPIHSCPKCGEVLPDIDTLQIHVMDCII

B1: TBK1 T4A, untagged (natural protein, human, UniProt Q9UHD2 1-729, looked up)
chain: MQSASNHLWLLSDILGQGATANVFRGRHKKTGDLFAIKVFNNISFLRPVDVQMREFEVLKKLNHKNIVKLFAIEEETTTRHKVLIMEFCPCGSLYTVLEEPSNAYGLPESEFLIVLRDVVGGMNHLRENGIVHRDIKPGNIMRVIGEDGQSVYKLTDFGAARELEDDEQFVSLYGTEEYLHPDMYERAVLRKDHQKKYGATVDLWSIGVTFYHAATGSLPFRPFEGPRRNKEVMYKIITGKPSGAISGVQKAENGPIDWSGDMPVSCSLSRGLQVLLTPVLANILEADQEKCWGFDQFFAETSDILHRMVIHVFSLQQMTAHKIYIHSYNTATIFHELVYKQTKIISSNQELIYEGRRLVLEPGRLAQHFPKTTEENPIFVVSREPLNTIGLIYEKISLPKVHPRYDLDGDASMAKAITGVVCYACRIASTLLLYQELMRKGIRWLIELIKDDYNETVHKKTEVVITLDFCIRNIEKTVKVYEKLMKINLEAAELGEISDIHTKLLRLSSSQGTIETSLQDIDSRLSPGGSLADAWAHQEGTHPKDRNVEKLQVLLNCMTEIYYQFKKDKAERRLAYNEEQIHKFDKQKLYYHATKAMTHFTDECVKKYEAFLNKSEEWIRKMLHLRKQLLSLTNQCFDIEEEVSKYQEYTNELQETLPQKMFTASSGIKHTMTPIYPSSNTLVEMTLGMKKLKEEMEGVVKELAENNHILERFGSLTMDGGLRNVDCL
TBK1 bound to OPTN relative to wild type: 1.93 relative to TBK1 WT
